# Assay results from FireProtDB (doi:10.1093/protein/gzt061).
# B1: Limonene-1,2-epoxide hydrolase wild type, Q9ZAG3 (protein)
# chain: MTSKIEQPRWASKDSAAGAASTPDEKIVLEFMDALTSNDAAKLIEYFAEDTMYQNMPLPPAYGRDAVEQTLAGLFTVMSIDAVETFHIGSSNGLVYTERVDVLRALPTGKSYNLSILGVFQLTEGKITGWRDYFDLREFEEAVDLPLRG
# Conditions: Rhodococcus erythropolis; pH 7.1; Thermal; Fluorescence; Potassium phosphate 50mM; transition: 2; reversible: no; whole UniProt chain shown
protein,measurement,value
B1,Tm,48.8 °C
